# Results from patent US20250059278A1 (SICHUAN HUIYU PHARMACEUTICAL, published 2025).
# Positions count from the first letter of the chain named.
# B1: CD3 monoclonal antibody M28 (antibody, human IgG1, lambda, V domains shown)
# VH: EVQLVESGGGLVQPGGSLRLSCAASGFTFNTYAMNWVRQAPGKGLEWVARIRSKYNNYATYYADSVKDRFTISRDDSKSILYLQMNSLKTEDTAMYYCVRHHNFGNSYVSWFAYWGQGTLVTVSS
# VL: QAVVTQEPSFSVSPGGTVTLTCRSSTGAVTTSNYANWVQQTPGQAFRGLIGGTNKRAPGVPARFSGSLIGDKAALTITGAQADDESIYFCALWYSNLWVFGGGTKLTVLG
# notes: IgG: VH28 + IgG1 mutant CH, VL-1 + CL
# B2: Control antibody 1 (antibody, V domains shown)
# VH: B1 VH with G15K, R19K, K78Q, S87N, H102G, S125A
# VL: QAVVTQESALTTSPGETVTLTCRSSTGAVTTSNYANWVQEKPDHLFTGLIGGTNKRAPGVPARFSGSLIGDKAALTITGAQTEDEAIYFCALWYSNLWVFGGGTKLTVL
# notes: also called positive control antibody 1
# B3: CD3 monoclonal antibody M3 (antibody, human IgG1, lambda, V domains shown)
# VH: B1 VH with H102G, A113E
# VL: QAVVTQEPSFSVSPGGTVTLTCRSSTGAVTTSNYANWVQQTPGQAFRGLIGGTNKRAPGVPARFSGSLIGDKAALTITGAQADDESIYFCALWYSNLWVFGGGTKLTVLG
# notes: IgG: VH3 + IgG1 mutant CH, VL-1 + CL
# B4: CD3 monoclonal antibody M21 (antibody, human IgG1, lambda, V domains shown)
# VH: B1 VH with D68G, I80S, H102S, S107T
# VL: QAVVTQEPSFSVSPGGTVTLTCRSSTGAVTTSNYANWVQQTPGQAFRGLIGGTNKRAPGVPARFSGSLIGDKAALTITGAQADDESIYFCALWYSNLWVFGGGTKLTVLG
# notes: IgG: VH21 + IgG1 mutant CH, VL-1 + CL
# B5: CD3 monoclonal antibody M26 (antibody, human IgG1, lambda, V domains shown)
# VH: B1 VH with S87N, H102G, Y108Q, A113Q
# VL: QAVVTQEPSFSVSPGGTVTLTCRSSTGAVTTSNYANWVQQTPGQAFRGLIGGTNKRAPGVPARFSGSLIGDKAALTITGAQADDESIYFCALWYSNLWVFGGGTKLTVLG
# notes: IgG: VH26 + IgG1 mutant CH, VL-1 + CL
# B6: CD3 monoclonal antibody M9 (antibody, human IgG1, lambda, V domains shown)
# VH: B1 VH with D68G, H102G, A113K
# VL: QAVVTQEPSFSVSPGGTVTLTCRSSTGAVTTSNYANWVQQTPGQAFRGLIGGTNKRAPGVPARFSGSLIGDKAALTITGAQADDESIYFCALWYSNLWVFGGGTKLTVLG
# notes: IgG: VH9 + IgG1 mutant CH, VL-1 + CL
# B7: CD3 monoclonal antibody M15 (antibody, human IgG1, lambda, V domains shown)
# VH: B1 VH with I80S, H102G, N103D, F104P
# VL: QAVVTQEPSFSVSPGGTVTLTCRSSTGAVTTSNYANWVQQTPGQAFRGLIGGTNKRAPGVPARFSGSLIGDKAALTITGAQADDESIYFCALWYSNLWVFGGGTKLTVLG
# notes: IgG: VH15 + IgG1 mutant CH, VL-1 + CL
# B8: CD3 monoclonal antibody M24 (antibody, human IgG1, lambda, V domains shown)
# VH: B1 VH with D68G, M95V, H102S, N106R
# VL: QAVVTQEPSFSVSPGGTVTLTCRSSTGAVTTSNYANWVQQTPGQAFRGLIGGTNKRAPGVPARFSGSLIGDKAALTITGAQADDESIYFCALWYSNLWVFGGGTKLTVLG
# notes: IgG: VH24 + IgG1 mutant CH, VL-1 + CL
# B9: CD3 monoclonal antibody M22 (antibody, human IgG1, lambda, V domains shown)
# VH: B1 VH with D68G, H102E, N103R
# VL: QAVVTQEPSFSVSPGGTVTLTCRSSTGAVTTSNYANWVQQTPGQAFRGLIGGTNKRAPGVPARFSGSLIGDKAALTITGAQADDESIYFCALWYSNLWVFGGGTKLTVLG
# notes: IgG: VH22 + IgG1 mutant CH, VL-1 + CL
# B10: CD3 monoclonal antibody M2 (antibody, human IgG1, lambda, V domains shown)
# VH: B1 VH with D68G, I80S, H101A, H102K
# VL: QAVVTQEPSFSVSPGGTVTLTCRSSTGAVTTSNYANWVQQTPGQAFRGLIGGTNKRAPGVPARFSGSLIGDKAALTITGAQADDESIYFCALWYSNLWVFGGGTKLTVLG
# notes: IgG: VH2 + IgG1 mutant CH, VL-1 + CL
# B11: CD3 monoclonal antibody M5 (antibody, human IgG1, lambda, V domains shown)
# VH: B1 VH with M95V, H102G, G105K
# VL: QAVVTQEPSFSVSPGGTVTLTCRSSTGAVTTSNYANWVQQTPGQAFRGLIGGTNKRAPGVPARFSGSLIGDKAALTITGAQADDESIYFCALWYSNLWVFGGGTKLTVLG
# notes: IgG: VH5 + IgG1 mutant CH, VL-1 + CL
# B12: CD3 monoclonal antibody M14 (antibody, human IgG1, lambda, V domains shown)
# VH: B1 VH with I80S, H102S, A113E
# VL: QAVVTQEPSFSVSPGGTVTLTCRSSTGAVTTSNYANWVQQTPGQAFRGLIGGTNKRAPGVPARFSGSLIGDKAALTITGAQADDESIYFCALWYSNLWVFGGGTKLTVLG
# notes: IgG: VH14 + IgG1 mutant CH, VL-1 + CL
# B13: CD3 monoclonal antibody M10 (antibody, human IgG1, lambda, V domains shown)
# VH: B1 VH with I80S, M95V, H102S, G105R
# VL: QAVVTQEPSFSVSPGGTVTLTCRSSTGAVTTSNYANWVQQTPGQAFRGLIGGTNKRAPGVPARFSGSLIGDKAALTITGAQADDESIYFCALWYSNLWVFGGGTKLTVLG
# notes: IgG: VH10 + IgG1 mutant CH, VL-1 + CL
# B14: CD3 monoclonal antibody M7 (antibody, human IgG1, lambda, V domains shown)
# VH: B1 VH with I80S, S87N, H101A, H102G, A113E
# VL: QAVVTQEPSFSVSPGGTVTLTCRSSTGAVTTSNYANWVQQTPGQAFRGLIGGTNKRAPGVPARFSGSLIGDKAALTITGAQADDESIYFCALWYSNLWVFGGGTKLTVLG
# notes: IgG: VH7 + IgG1 mutant CH, VL-1 + CL
# B15: CD3 monoclonal antibody M20 (antibody, human IgG1, lambda, V domains shown)
# VH: B1 VH with I80S, M95V, H102G, A113Q
# VL: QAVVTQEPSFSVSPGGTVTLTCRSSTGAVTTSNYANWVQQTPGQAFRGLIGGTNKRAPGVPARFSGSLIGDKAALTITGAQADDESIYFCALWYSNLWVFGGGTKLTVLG
# notes: IgG: VH20 + IgG1 mutant CH, VL-1 + CL
# B16: CD3 monoclonal antibody M18 (antibody, human IgG1, lambda, V domains shown)
# VH: B1 VH with I80S, H101A, H102G, S110N
# VL: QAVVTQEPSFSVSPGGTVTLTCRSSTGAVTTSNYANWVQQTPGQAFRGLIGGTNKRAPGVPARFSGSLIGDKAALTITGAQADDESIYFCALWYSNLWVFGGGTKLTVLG
# notes: IgG: VH18 + IgG1 mutant CH, VL-1 + CL
# B17: CD3 monoclonal antibody M16 (antibody, human IgG1, lambda, V domains shown)
# VH: B1 VH with D68G, M95V, H102G, A113Q
# VL: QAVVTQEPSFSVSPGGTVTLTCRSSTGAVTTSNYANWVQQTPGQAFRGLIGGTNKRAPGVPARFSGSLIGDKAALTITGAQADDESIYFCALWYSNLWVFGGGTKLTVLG
# notes: IgG: VH16 + IgG1 mutant CH, VL-1 + CL
# B18: CD3 monoclonal antibody M13 (antibody, human IgG1, lambda, V domains shown)
# VH: B1 VH with D68G, I80S, M95V, H102G, G105K, V109G
# VL: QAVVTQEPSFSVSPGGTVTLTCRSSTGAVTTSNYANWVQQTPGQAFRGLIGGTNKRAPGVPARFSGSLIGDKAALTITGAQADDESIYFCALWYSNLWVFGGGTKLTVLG
# notes: IgG: VH13 + IgG1 mutant CH, VL-1 + CL
# B19: CD3 monoclonal antibody M8 (antibody, human IgG1, lambda, V domains shown)
# VH: B1 VH with I80S, S87N, H102G, S107T, Y114M
# VL: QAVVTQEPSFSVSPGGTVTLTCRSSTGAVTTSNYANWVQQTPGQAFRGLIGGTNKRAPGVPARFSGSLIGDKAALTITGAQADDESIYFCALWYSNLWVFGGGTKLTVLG
# notes: IgG: VH8 + IgG1 mutant CH, VL-1 + CL
# B20: CD3 monoclonal antibody M19 (antibody, human IgG1, lambda, V domains shown)
# VH: B1 VH with M95V, H102G, Y108A, A113Q
# VL: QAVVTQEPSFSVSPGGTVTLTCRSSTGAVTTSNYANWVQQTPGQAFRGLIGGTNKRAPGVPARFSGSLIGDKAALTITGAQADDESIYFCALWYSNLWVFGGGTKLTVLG
# notes: IgG: VH19 + IgG1 mutant CH, VL-1 + CL
# B21: CD3 monoclonal antibody M23 (antibody, human IgG1, lambda, V domains shown)
# VH: B1 VH with D68G, H102S, G105L
# VL: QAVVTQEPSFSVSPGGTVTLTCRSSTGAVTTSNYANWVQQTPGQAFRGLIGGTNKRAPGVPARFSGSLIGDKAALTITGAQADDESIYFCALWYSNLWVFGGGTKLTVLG
# notes: IgG: VH23 + IgG1 mutant CH, VL-1 + CL
# B22: CD3 monoclonal antibody M6 (antibody, human IgG1, lambda, V domains shown)
# VH: B1 VH with D68G, I80S, H102G, G105Y, Y114H
# VL: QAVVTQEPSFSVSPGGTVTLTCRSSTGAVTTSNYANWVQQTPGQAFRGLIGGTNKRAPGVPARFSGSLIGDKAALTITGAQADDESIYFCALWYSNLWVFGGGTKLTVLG
# notes: IgG: VH6 + IgG1 mutant CH, VL-1 + CL
# B23: CD3 monoclonal antibody M17 (antibody, human IgG1, lambda, V domains shown)
# VH: B1 VH with H102G, G105W, Y114S
# VL: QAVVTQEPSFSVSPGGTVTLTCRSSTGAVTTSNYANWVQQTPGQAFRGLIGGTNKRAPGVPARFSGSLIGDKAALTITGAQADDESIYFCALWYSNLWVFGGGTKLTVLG
# notes: IgG: VH17 + IgG1 mutant CH, VL-1 + CL
# B24: CD3 monoclonal antibody M12 (antibody, human IgG1, lambda, V domains shown)
# VH: B1 VH with D68G, I80S, S87N, H102S, G105P
# VL: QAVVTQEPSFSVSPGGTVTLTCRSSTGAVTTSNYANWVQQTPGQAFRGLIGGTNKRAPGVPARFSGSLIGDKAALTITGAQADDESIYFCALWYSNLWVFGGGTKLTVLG
# notes: IgG: VH12 + IgG1 mutant CH, VL-1 + CL
# B25: CD3 monoclonal antibody M4 (antibody, human IgG1, lambda, V domains shown)
# VH: B1 VH with S87N, M95V, H102G, G105Q, A113Q
# VL: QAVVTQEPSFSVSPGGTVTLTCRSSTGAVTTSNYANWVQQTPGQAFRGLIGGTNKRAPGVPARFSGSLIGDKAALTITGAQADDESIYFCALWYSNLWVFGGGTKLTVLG
# notes: IgG: VH4 + IgG1 mutant CH, VL-1 + CL
# B26: CD3 monoclonal antibody M1 (antibody, human IgG1, lambda, V domains shown)
# VH: B1 VH with D68G, S87N, H102A, G105L
# VL: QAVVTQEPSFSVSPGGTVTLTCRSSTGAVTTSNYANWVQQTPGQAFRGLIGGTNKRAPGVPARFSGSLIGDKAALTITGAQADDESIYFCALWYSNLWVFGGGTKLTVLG
# notes: IgG: VH1 + IgG1 mutant CH, VL-1 + CL
# B27: CD3 monoclonal antibody M25 (antibody, human IgG1, lambda, V domains shown)
# VH: B1 VH with H102G, Y108R
# VL: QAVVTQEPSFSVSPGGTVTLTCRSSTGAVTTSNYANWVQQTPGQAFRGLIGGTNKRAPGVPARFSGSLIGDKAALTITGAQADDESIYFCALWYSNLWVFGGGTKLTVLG
# notes: IgG: VH25 + IgG1 mutant CH, VL-1 + CL
# B28: CD3 monoclonal antibody M11 (antibody, human IgG1, lambda, V domains shown)
# VH: B1 VH with I80S, M95V, H102S, G105V
# VL: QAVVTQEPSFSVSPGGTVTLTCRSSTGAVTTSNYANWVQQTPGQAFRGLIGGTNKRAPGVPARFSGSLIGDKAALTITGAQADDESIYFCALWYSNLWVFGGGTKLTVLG
# notes: IgG: VH11 + IgG1 mutant CH, VL-1 + CL
# B29: Positive control antibody OKT3 (antibody, V domains shown)
# VH: not shown
# VL: QIVLTQSPAIMSASPGEKVTMTCSASSSVSYMNWYQQKSGTSPKRWIYDTSKLASGVPAHFRGSGSGTSYSLTISGMEAEDAATYYCQQWSSNPFTFGSGTKLEI
# Target: T1, Monkey CD3 on cynomolgus HSC-F cells (cynomolgus monkey, UniProt Q95LI5 22-198; Q95LI7 23-181; Q95LI8 22-171)
# T1 construct: whole, on cells; also called Monkey CD3-expressing cynomolgus HSC-F cells; cynomolgus monkey CD3-expressing HSC-F cells
# Assay: flow cytometry on HSC-F cells
Binder,EC50 [nM],binding result
B1,0.287,
B2,0.487,
B3,0.315,
B4,1.23,
B5,0.223,
B6,0.237,
B7,0.118,
B8,0.12,
B9,2.31,
B10,0.225,
B11,0.152,
B12,0.271,
B13,0.194,
B14,0.69,
B15,6.58,
B16,0.841,
B17,0.162,
B18,0.276,
B19,0.186,
B20,0.238,
B21,0.164,
B22,0.172,
B23,0.21,
B24,0.162,
B25,0.434,
B26,0.117,
B27,0.111,
B28,0.169,
B29,,no binding (tested: 2 µg/ml starting concentration)

# Target: T2, Human CD3 on Jurkat cells (human, UniProt P07766 23-207; P09693 23-182; P04234 22-171)
# T2 construct: whole, on cells; also called Human CD3-expressing Jurkat cells; Jurkat (naturally expressing human CD3)
# Assay: flow cytometry on Jurkat cells
row,Binder,EC50 [nM]
1,B1,0.854
2,B2,0.473
3,B3,0.261
4,B4,41.6
5,B5,0.235
6,B6,1.51
7,B7,0.166
8,B8,1.32
9,B9,2.55
10,B10,0.214
11,B11,0.154
12,B12,1.51
13,B13,1.23
14,B14,1.71
15,B15,61.7
16,B16,0.515
17,B17,0.477
18,B18,0.832
19,B19,0.268
20,B20,0.19
21,B21,0.186
22,B22,0.169
23,B23,0.181
24,B24,0.27
25,B25,0.402
26,B26,0.581
27,B27,0.0954
28,B28,0.13

# Target: T3, Human CD3εγ recombinant antigen (acrobiosystems, Cat. No. CDG-H52W5) (human, UniProt P07766 23-126; P09693 23-116)
# T3 construct: Bought recombinant protein
# Assay: SPR chip (Carterra), antibody captured, antigen in flow;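 also: antibodies captured through anti-human IgG Fc at roughly 1000 RU, kinetic constants fitted with a 1:1 binding model in Carterra analysis software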
# Method: Antibodies at three concentrations of 4, 2, and 1 μg/mL were immobilized on the HC200M chip containing anti-human IgG Fc secondary antibody (Xantec, Cat. No.: HC200M), and the antibody binding amount was controlled to approximately 1000RU. […] The kinetic constants were obtained by fitting using the 1:1 binding model of Kinetics software from Carterra.
Binder,Kd [nM],koff [s⁻¹],kon [M⁻¹ s⁻¹]
B1,2.53,0.00237,938000
B3,1.36,0.0015,1.1e+06
B4,3.71,0.00649,1.75e+06
B5,3.51,0.00543,1.55e+06
B6,1.92,0.0025,1.3e+06
B7,160,,
B8,1.06,0.00358,3.38e+06
B9,3.33,0.00222,666000
B10,6.6,0.00363,550000
B11,5.84,0.0101,1.74e+06
B12,0.624,0.00128,2.05e+06
B13,2.15,0.00653,3.04e+06
B14,2.39,0.0011,460000
B15,2.56,0.00232,908000
B16,179,,
B17,2.02,0.00188,929000
B18,3.33,0.00045,135000
B19,5.16,0.0032,620000
B20,1.57,0.00256,1.63e+06
B21,1.57,0.00549,3.5e+06
B22,3.63,0.00354,973000
B23,2.52,0.00108,429000
B24,1.93,0.00768,3.97e+06
B25,3.4,0.00517,1.52e+06
B26,2.57,0.0105,4.09e+06
B27,5.27,0.0048,910000
B28,2.95,0.00677,2.3e+06
